Data on 6 molecules can be found in publication PMC3167620.

Where a chain is given by its changes, count along the chain named. Like-named read-outs stand apart in the source and are kept apart here.

The target in series [1] is T1, G4R1/RHAU (G4 Resolvase 1) (human, UniProt Q9H2U1 1-1008).
T1 sequence: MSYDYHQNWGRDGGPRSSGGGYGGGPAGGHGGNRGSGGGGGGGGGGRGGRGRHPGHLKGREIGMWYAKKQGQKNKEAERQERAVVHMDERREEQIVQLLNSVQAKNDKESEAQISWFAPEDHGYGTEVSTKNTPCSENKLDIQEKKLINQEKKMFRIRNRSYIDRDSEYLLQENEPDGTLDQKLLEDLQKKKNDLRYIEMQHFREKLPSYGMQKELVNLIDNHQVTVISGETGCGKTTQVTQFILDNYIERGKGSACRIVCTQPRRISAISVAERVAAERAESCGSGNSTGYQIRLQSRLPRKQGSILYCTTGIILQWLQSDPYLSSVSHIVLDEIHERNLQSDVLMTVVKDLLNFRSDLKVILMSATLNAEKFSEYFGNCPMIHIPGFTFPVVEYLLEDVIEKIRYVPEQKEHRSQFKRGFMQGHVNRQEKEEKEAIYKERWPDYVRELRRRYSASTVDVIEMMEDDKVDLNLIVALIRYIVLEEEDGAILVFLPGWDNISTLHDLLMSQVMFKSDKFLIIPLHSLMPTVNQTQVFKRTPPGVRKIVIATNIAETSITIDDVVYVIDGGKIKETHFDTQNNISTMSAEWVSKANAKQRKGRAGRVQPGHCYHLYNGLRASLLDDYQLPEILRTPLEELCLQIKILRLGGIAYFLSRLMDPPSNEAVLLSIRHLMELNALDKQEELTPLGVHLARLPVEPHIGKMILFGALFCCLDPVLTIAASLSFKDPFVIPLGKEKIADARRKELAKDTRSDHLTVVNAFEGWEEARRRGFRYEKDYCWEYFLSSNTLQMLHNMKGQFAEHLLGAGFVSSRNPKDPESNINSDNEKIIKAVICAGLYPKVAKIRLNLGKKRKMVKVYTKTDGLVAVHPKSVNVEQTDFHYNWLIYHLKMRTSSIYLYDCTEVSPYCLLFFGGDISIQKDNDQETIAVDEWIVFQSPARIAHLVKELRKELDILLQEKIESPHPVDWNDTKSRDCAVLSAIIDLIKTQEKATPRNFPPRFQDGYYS
In words: EMSA.

Series [2] concerns the target T1, G4R1/RHAU (G4 Resolvase 1). In words: competition.
In series [3] the target is T1, G4R1/RHAU (G4 Resolvase 1). In words: EMSA. This is another data set of the same source.
Series [4] deals with T2, G4R1/RHAU E335A (Walker B, ATPase-dead) (human, UniProt Q9H2U1 1-1008, E335A).
T2 sequence: T1 sequence with E335A
In words: EMSA.

Series [5] has as its target T1, G4R1/RHAU (G4 Resolvase 1). In words: EMSA. This is another data set of the same source.
The target of series [6] is T1, G4R1/RHAU (G4 Resolvase 1). In words: competition. The source holds these as a separate data set.
Series [7] addresses T1, G4R1/RHAU (G4 Resolvase 1). In words: EMSA. The source holds these as a separate data set.

B1: c-Myc DNA 51-mer, unimolecular G4 (structured_DNA)
DNA: GGCCGCTTATGGGGAGGGTGGGGAGGGTGGGGAAGGTGGGGAGGAGACTCA
Turning to B1, the Kd in series [1] turned out to be 4.4 ± 0.6 pM. In series [2], the IC50 is 0.06 competitor:substrate molar ratio.
Regarding AAAAAAAAAAGGGTGGGGGGGCGGGGGAGGCCGGGGAAAAAAAAAA (structured_DNA) [Poly A Zic1 DNA 47-mer, unimolecular G4], the values for the Kd in series [1] and in series [3] were 5.7 ± 0.2 pM and 5 pM, respectively. Further, the binding result in series [4] is on record as “binds”.
With AAAAAAAAAAGGGTGGGGGGGCGGGGGAGGCCGGGGAAAAAAAAAA (ssDNA, guanine N7 methylation (DMS)) [Poly A Zic1 47-mer, dimethyl sulfate treated], the binding result in series [5] is “no binding”.
As to AAAGTGATGGTGGTGGGGGAAGGATTTTCGAAC (structured_DNA) [Z33 tetramolecular G4-DNA], the IC50 in series [6] is 1 competitor:substrate molar ratio.
Molecule AGAAGAGAGAGAGTGAGAGAGACGAGAGAGGCCGAGAAGAGAGAGAG (ssDNA) [Scrambled Zic1 DNA 47-mer] displayed a dissociation constant Kd in series [7] of over 300 pM.
TTTTTTTTTTGGGTGGGGGGGGCGGGGGAGGCCGGGGTTTTTTTTTT (structured_DNA) [Poly T Zic1 DNA 47-mer, unimolecular G4] displayed a Kd in series [1] of 2.4 ± 0.2 pM.
